Test results taken from patent US20220162338A1 (SICHUAN KELUN BIOTECH BIOPHARMACEUTICAL, published 2022).
Positions count from the first letter of the chain named. Numbers in names are those of the source. One block for each binder: values may come before it.

Key:
[1] = target: T1, human FXIa (activated human coagulation Factor XI) (human, UniProt P03951 19-387; P03951 388-625); assay: BLI (Octet ForteBio), ratio of KD against 14E11
T1 construct: Bought protein; also called FXIa protein; FXIa antigen
Procedure: (§1) The specific experimental steps were as follows: the streptavidin biosensors was first bound with the biotin-labeled antibody to be tested to reach a response signal value of 0.8 nm, then bound with FXIa protein (3.2, 1.6, 0.8, 0.4, 0.2, 0.1, 0.05, and 0 μg/mL) for 5 minutes, then dissociation was performed for 7 minutes, and the bivalent analysis model was used for all fitting analysis.

[2] = target: T1, human FXIa (activated human coagulation …); assay: BLI (Octet ForteBio), biotin-labeled antibody on streptavidin sensor, FXIa in solution, bivalent model
Procedure: as §1

[3] = target: T1, human FXIa (activated human coagulation …); assay: BLI (Octet ForteBio), ratio of KD against BAY-1213790
Procedure: as §1

[4] = target: T2, human FXI (human coagulation Factor XI) (human, UniProt P03951 19-625); assay: BLI (Octet Fortebio), antibody on AHC (anti-human-Fc) sensor, FXI in solution
T2 construct: Bought protein; Biotin-labeled form (HCXI-0150-B) was used in the hybridoma screen; also called FXI protein; FXI antigen
Procedure: Octet Fortebio® was used for the affinity determination of chimeric and humanized antibodies. […] The data obtained were analyzed by Octet data analysis software.

[5] = target: T1, human FXIa (activated human coagulation …); assay: cell-based or functional assay
[6] = target: T1, human FXIa (activated human coagulation …); assay: cell-based or functional assay; remark: listed apart in the source
[7] = target: T3, human FXI antigen expressed in 293F cells (human, UniProt P03951 19-625, limits assumed); assay: ELISA, FXI antigen (293F) coated at 1 µg/mL, HRP goat-anti-human detection
T3 construct: also called FXI antigen (PMD-F11 plasmid cloned into PLVX-IRES-PURO, 293F)

[8] = target: T1, human FXIa (activated human coagulation …); assay: cell-based or functional assay; remark: listed apart in the source
[9] = target: T1, human FXIa (activated human coagulation …); assay: ELISA, FXIa coated at 1 µg/mL, HRP goat-anti-human detection

B1: murine antibody 36G9.10 (antibody, mouse IgG1, V domains shown)
VH: EVQLQQSGAELVKPGASVKLSCTASGFNIKDTYIHWVKQRPEQGLEWIGRIDPANDNTKYDPKFQGKATITADTSSNTAYLQLSSLTSEDSAVYYCAQDYDGFAMDYWGQGTSVTVSS
VL: DIQMTQSPSSLSASLGGKVTITCKASQDINKYITWFQHKPGKGPRLLIHYTSTLQPGIPSRFSGSGSGRDYSFSISNLEPEDSATYYCLQYDYLLTFGGGTKLEIK
notes: also called 36G9.10 murine antibody; murine anti-human FXI/FXIa monoclonal antibody
- fold stronger affinity than 14E11 [1]: 1.7 times
- Kd [2]: 0.48 nM
- koff [2]: 0.00072 s⁻¹
- kon [2]: 1.5e+06 M⁻¹ s⁻¹
- fold stronger affinity than BAY-1213790 [3]: 2.5 times

B3: humanized antibody 36G9.10-hz73 (antibody, human IgG1, kappa, N297A, V domains shown)
VH: EVQLVQSGAEVKKPGATVKISCKASGFNIKDTYIHWVQQAPGKGLEWMGRIDPANDNTIYAEKFQGRVTITADTSTNTAYMELSSLRSEDTAVYYCAQDYDGFAMDYWGQGTLVTVSS
VL: DIQMTQSPSSLSASVGDRVTITCKASQDINKYITWFQQKPGKAPKLLIHYTSTLQPGVPSRFSGSGSGRDYTLTISSLQPEDFATYYCLQYDYLLTFGGGTKVEIKR
- APTT detection (EC50, nM), sample at 0 days [5]: 18.4 nM
- APTT detection (EC50, nM), sample stored at 25° C. for 28 days [5]: 17.4 nM
- APTT detection (EC50, nM), sample stored at 40° C. for 14 days [5]: 20.3 nM
- APTT detection (EC50, nM), sample stored at 40° C. for 28 days [5]: 26.9 nM
- IC50 value (ng/mL), inhibition of the catalytic effect of FXIa on fluorescent substrate I-1575 [6]: 26.2 ng/mL
- EC50 [7]: 9.68 ng/mL
- APTT in human plasma, fold prolongation [8]: 2.2 times
- Kd [4]: 0.0103 nM
- koff [4]: 6.51e-05 s⁻¹
- kon [4]: 6.31e+06 M⁻¹ s⁻¹
- EC50 [9]: 2.49 ng/mL

B6: humanized antibody 36G9.10-hz43 (antibody, human IgG1, kappa, N297A, V domains shown)
VH: QVQLVQSGAEVKKPGASVKVSCKASGFNIKDTYIHWVRQAPGQGLEWIGRIDPANDNTNYAQKFQGRVTMTADTSINTAYMELSRLRSDDTAVYYCAQDYDGFAMDYWGQGTLVTVSS
VL: B3 VL
- Kd [4]: 0.0441 nM
- koff [4]: 0.000255 s⁻¹
- kon [4]: 5.77e+06 M⁻¹ s⁻¹

B7: humanized antibody 36G9.10-hz92 (antibody, human IgG1, kappa, N297A, V domains shown)
VH: B3 VH with M48I, I59K, A61D, E62P
VL: B3 VL with R69T, Y71F
- Kd [4]: 0.0152 nM
- koff [4]: 7.69e-05 s⁻¹
- kon [4]: 5.07e+06 M⁻¹ s⁻¹

B8: BAY-1213790 (antibody, V domains shown)
VH: EVQLLESGGGLVQPGGSLRLSCAASGFTFSQYGMDWVRQAPGKGLEWVSGIGPSGGSTVYADSVKGRFTISRDNSKNTLYLQMNSLRAEDTAVYYCTRGGPYYYYGMDVWGQGTTVTVSS
VL: DIQMTQSPSSLSASVGDRVTITCQASQDISNYLNWYQQKPGKAPKLLIYDASNLETGVPSRFSGSGSGTDFTFTISSLQPEDIATYYCQQADSFPVTFGGGTKVEIKR
- Kd [2]: 1.19 nM
- koff [2]: 0.00109 s⁻¹
- kon [2]: 918000 M⁻¹ s⁻¹
- IC50 value (ng/mL), inhibition of the catalytic effect of FXIa on fluorescent substrate I-1575 [6]: 70 ng/mL
- Kd [4]: 0.374 nM
- koff [4]: 0.00034 s⁻¹
- kon [4]: 910000 M⁻¹ s⁻¹
- EC50 [9]: 6.16 ng/mL

Next, values leading:

- Kd [4]: 0.00366 nM
- koff [4]: 2.39e-05 s⁻¹
- kon [4]: 6.52e+06 M⁻¹ s⁻¹
B2: chimeric antibody 36G9.10-hz00 (antibody, human IgG1, kappa, N297A, V domains shown)
VH: B1 VH
VL: DIQMTQSPSSLSASLGGKVTITCKASQDINKYITWFQHKPGKGPRLLIHYTSTLQPGIPSRFSGSGSGRDYSFSISNLEPEDSATYYCLQYDYLLTFGGGTKLEIKR
notes: Murine variable regions grafted to human IgG1 (N297A) and human kappa constant regions

- Kd [4]: 0.00798 nM
- koff [4]: 5.16e-05 s⁻¹
- kon [4]: 6.47e+06 M⁻¹ s⁻¹
B4: humanized antibody 36G9.10-hz74 (antibody, human IgG1, kappa, N297A, V domains shown)
VH: B3 VH
VL: B3 VL with F36Y, H49Y, R69T, Y71F, L73F, F83I

- Kd [4]: 0.00881 nM
- koff [4]: 5.34e-05 s⁻¹
- kon [4]: 6.06e+06 M⁻¹ s⁻¹
B5: humanized antibody 36G9.10-hz93 (antibody, human IgG1, kappa, N297A, V domains shown)
VH: B3 VH with M48I, I59K, A61D, E62P
VL: B3 VL
